From PMC7367873, “Dissecting the sequence determinants for dephosphorylation by the catalytic subunits of phosphatases PP1 and PP2A” (Nature Communications, 2020)

Experiments:
[1] = test system: GFP-14-3-3β and its binding proteins; assay: GFP-14-3-3β co-IP with LC-MS/MS label-free quantification, untreated versus PP1c-treated; parameters: species or system human; details: pairwise comparison PP1 vs untreated
[2] = test system: GFP-14-3-3β; assay: GFP-14-3-3β co-IP with LC-MS/MS, untreated GFP-14-3-3β versus GFP control (14-3-3 interactome); assay type: binding, human; details: pairwise comparison untreated vs GFP
[3] = log2 difference, label-free quantification, 3 replicates each

Difference (log2), PP1 vs untreated [1] [log2]	Difference (log2), PP1 vs untreated [1, 3]	Molecule	Difference (log2), untreated vs GFP [2] [log2]	Difference (log2), untreated vs GFP [2, 3]
0.177	–	XPO5 (protein, UniProt Q9HAV4 2-1204, looked up) Exportin-5: AMDQVNALCEQLVKAVTVMMDPNSTQRYRLEALKFCEEFKEKCPICVPCGLRLAEKTQVAIVRHFGLQILEHVVKFRWNGMSRLEKVYLKNSVMELIANGTLNILEEENHIKDALSRIVVEMIKREWPQHWPDMLIELDTLSKQGETQTELVMFILLRLAEDVVTFQTLPPQRRRDIQQTLTQNMERIFSFLLNTLQENVNKYQQVKTDTSQESKAQANCRVGVAALNTLAGYIDWVSMSHITAENCKLLEILCLLLNEQELQLGAAECLLIAVSRKGKLEDRKPLMVLFGDVAMHYILSAAQTADGGGLVEKHYVFLKRLCQVLCALGNQLCALLGADSDVETPSNFGKYLESFLAFTTHPSQFLRSSTQMTWGALFRHEILSRDPLLLAIIPKYLRASMTNLVKMGFPSKTDSPSCEYSRFDFDSDEDFNAFFNSSRAQQGEVMRLACRLDPKTSFQMAGEWLKYQLSTFLDAGSVNSCSAVGTGEGSLCSVFSPSFVQWEAMTLFLESVITQMFRTLNREEIPVNDGIELLQMVLNFDTKDPLILSCVLTNVSALFPFVTYRPEFLPQVFSKLFSSVTFETVEESKAPRTRAVRNVRRHACSSIIKMCRDYPQLVLPNFDMLYNHVKQLLSNELLLTQMEKCALMEALVLISNQFKNYERQKVFLEELMAPVASIWLSQDMHRVLSDVDAFIAYVGTDQKSCDPGLEDPCGLNRARMSFCVYSILGVVKRTCWPTDLEEAKAGGFVVGYTSSGNPIFRNPCTEQILKLLDNLLALIRTHNTLYAPEMLAKMAEPFTKALDMLDAEKSAILGLPQPLLELNDSPVFKTVLERMQRFFSTLYENCFHILGKAGPSMQQDFYTVEDLATQLLSSAFVNLNNIPDYRLRPMLRVFVKPLVLFCPPEHYEALVSPILGPLFTYLHMRLSQKWQVINQRSLLCGEDEAADENPESQEMLEEQLVRMLTREVMDLITVCCVSKKGADHSSAPPADGDDEEMMATEVTPSAMAELTDLGKCLMKHEDVCTALLITAFNSLAWKDTLSCQRTTSQLCWPLLKQVLSGTLLADAVTWLFTSVLKGLQMHGQHDGCMASLVHLAFQIYEALRPRYLEIRAVMEQIPEIQKDSLDQFDCKLLNPSLQKVADKRRKDQFKRLIAGCIGKPLGEQFRKEVHIKNLPSLFKKTKPMLETEVLDNDGGGLATIFEP	1.1372	–
0.1978	–	RAI14 (protein, UniProt Q9P0K7 1-980, looked up) Ankycorbin: MKSLKAKFRKSDTNEWNKNDDRLLQAVENGDAEKVASLLGKKGASATKHDSEGKTAFHLAAAKGHVECLRVMITHGVDVTAQDTTGHSALHLAAKNSHHECIRKLLQSKCPAESVDSSGKTALHYAAAQGCLQAVQILCEHKSPINLKDLDGNIPLLLAVQNGHSEICHFLLDHGADVNSRNKSGRTALMLACEIGSSNAVEALIKKGADLNLVDSLGYNALHYSKLSENAGIQSLLLSKISQDADLKTPTKPKQHDQVSKISSERSGTPKKRKAPPPPISPTQLSDVSSPRSITSTPLSGKESVFFAEPPFKAEISSIRENKDRLSDSTTGADSLLDISSEADQQDLLSLLQAKVASLTLHNKELQDKLQAKSPKEAEADLSFDSYHSTQTDLGPSLGKPGETSPPDSKSSPSVLIHSLGKSTTDNDVRIQQLQEILQDLQKRLESSEAERKQLQVELQSRRAELVCLNNTEISENSSDLSQKLKETQSKYEEAMKEVLSVQKQMKLGLVSPESMDNYSHFHELRVTEEEINVLKQDLQNALEESERNKEKVRELEEKLVEREKGTVIKPPVEEYEEMKSSYCSVIENMNKEKAFLFEKYQEAQEEIMKLKDTLKSQMTQEASDEAEDMKEAMNRMIDELNKQVSELSQLYKEAQAELEDYRKRKSLEDVTAEYIHKAEHEKLMQLTNVSRAKAEDALSEMKSQYSKVLNELTQLKQLVDAQKENSVSITEHLQVITTLRTAAKEMEEKISNLKEHLASKEVEVAKLEKQLLEEKAAMTDAMVPRSSYEKLQSSLESEVSVLASKLKESVKEKEKVHSEVVQIRSEVSQVKREKENIQTLLKSKEQEVNELLQKFQQAQEELAEMKRYAESSSKLEEDKDKKINEMSKEVTKLKEALNSLSQLSYSTSSSKRQSQQLEALQQQVKQLQNQLAECKKQHQEVISVYRMHLLYAVQGQMDEDVQKVLKQILTMCKNQSQKK	0.7048	–
–	2.053	HERC5 (protein, UniProt Q9UII4 1-1024, looked up) E3 ISG15--protein ligase HERC5: MERRSRRKSRRNGRSTAGKAAATQPAKSPGAQLWLFPSAAGLHRALLRRVEVTRQLCCSPGRLAVLERGGAGVQVHQLLAGSGGARTPKCIKLGKNMKIHSVDQGAEHMLILSSDGKPFEYDNYSMKHLRFESILQEKKIIQITCGDYHSLALSKGGELFAWGQNLHGQLGVGRKFPSTTTPQIVEHLAGVPLAQISAGEAHSMALSMSGNIYSWGKNECGQLGLGHTESKDDPSLIEGLDNQKVEFVACGGSHSALLTQDGLLFTFGAGKHGQLGHNSTQNELRPCLVAELVGYRVTQIACGRWHTLAYVSDLGKVFSFGSGKDGQLGNGGTRDQLMPLPVKVSSSEELKLESHTSEKELIMIAGGNQSILLWIKKENSYVNLKRTIPTLNEGTVKRWIADVETKRWQSTKREIQEIFSSPACLTGSFLRKRRTTEMMPVYLDLNKARNIFKELTQKDWITNMITTCLKDNLLKRLPFHSPPQEALEIFFLLPECPMMHISNNWESLVVPFAKVVCKMSDQSSLVLEEYWATLQESTFSKLVQMFKTAVICQLDYWDESAEENGNVQALLEMLKKLHRVNQVKCQLPESIFQVDELLHRLNFFVEVCRRYLWKMTVDASENVQCCVIFSHFPFIFNNLSKIKLLHTDTLLKIESKKHKAYLRSAAIEEERESEFALRPTFDLTVRRNHLIEDVLNQLSQFENEDLRKELWVSFSGEIGYDLGGVKKEFFYCLFAEMIQPEYGMFMYPEGASCMWFPVKPKFEKKRYFFFGVLCGLSLFNCNVANLPFPLALFKKLLDQMPSLEDLKELSPDLGKNLQTLLDDEGDNFEEVFYIHFNVHWDRNDTNLIPNGSSITVNQTNKRDYVSKYINYIFNDSVKAVYEEFRRGFYKMCDEDIIKLFHPEELKDVIVGNTDYDWKTFEKNARYEPGYNSSHPTIVMFWKAFHKLTLEEKKKFLVFLTGTDRLQMKDLNNMKITFCCPESWNERDPIRALTCFSVLFLPKYSTMETVEEALQEAINNNRGFG	–	0.5274
0.218	–	TMEM41B (protein, UniProt Q5BJD5 1-291, looked up) Transmembrane protein 41B: MAKGRVAERSQLGAHHTTPVGDGAAGTRGLAAPGSRDHQKEKSWVEAGSARMSLLILVSIFLSAAFVMFLVYKNFPQLSEEERVNMKVPRDMDDAKALGKVLSKYKDTFYVQVLVAYFATYIFLQTFAIPGSIFLSILSGFLYPFPLALFLVCLCSGLGASFCYMLSYLVGRPVVYKYLTEKAVKWSQQVERHREHLINYIIFLRITPFLPNWFINITSPVINVPLKVFFIGTFLGVAPPSFVAIKAGTTLYQLTTAGEAVSWNSIFILMILAVLSILPAIFQKKLKQKFE	0.8349	–
0.2305	–	JUP (protein, UniProt P14923 1-745, looked up) Junction plakoglobin: MEVMNLMEQPIKVTEWQQTYTYDSGIHSGANTCVPSVSSKGIMEEDEACGRQYTLKKTTTYTQGVPPSQGDLEYQMSTTARAKRVREAMCPGVSGEDSSLLLATQVEGQATNLQRLAEPSQLLKSAIVHLINYQDDAELATRALPELTKLLNDEDPVVVTKAAMIVNQLSKKEASRRALMGSPQLVAAVVRTMQNTSDLDTARCTTSILHNLSHHREGLLAIFKSGGIPALVRMLSSPVESVLFYAITTLHNLLLYQEGAKMAVRLADGLQKMVPLLNKNNPKFLAITTDCLQLLAYGNQESKLIILANGGPQALVQIMRNYSYEKLLWTTSRVLKVLSVCPSNKPAIVEAGGMQALGKHLTSNSPRLVQNCLWTLRNLSDVATKQEGLESVLKILVNQLSVDDVNVLTCATGTLSNLTCNNSKNKTLVTQNSGVEALIHAILRAGDKDDITEPAVCALRHLTSRHPEAEMAQNSVRLNYGIPAIVKLLNQPNQWPLVKATIGLIRNLALCPANHAPLQEAAVIPRLVQLLVKAHQDAQRHVAAGTQQPYTDGVRMEEIVEGCTGALHILARDPMNRMEIFRLNTIPLFVQLLYSSVENIQRVAAGVLCELAQDKEAADAIDAEGASAPLMELLHSRNEGTATYAAAVLFRISEDKNPDYRKRVSVELTNSLFKHDPAAWEAAQSMIPINEPYGDDMDATYRPMYSSDVPLDPLEMHMDMDGDYPIDTYSDGLRPPYPTADHMLA	-0.9623	–
0.1784	–	MRE11A (protein, UniProt P49959 2-708, looked up) Double-strand break repair …: STADALDDENTFKILVATDIHLGFMEKDAVRGNDTFVTLDEILRLAQENEVDFILLGGDLFHENKPSRKTLHTCLELLRKYCMGDRPVQFEILSDQSVNFGFSKFPWVNYQDGNLNISIPVFSIHGNHDDPTGADALCALDILSCAGFVNHFGRSMSVEKIDISPVLLQKGSTKIALYGLGSIPDERLYRMFVNKKVTMLRPKEDENSWFNLFVIHQNRSKHGSTNFIPEQFLDDFIDLVIWGHEHECKIAPTKNEQQLFYISQPGSSVVTSLSPGEAVKKHVGLLRIKGRKMNMHKIPLHTVRQFFMEDIVLANHPDIFNPDNPKVTQAIQSFCLEKIEEMLENAERERLGNSHQPEKPLVRLRVDYSGGFEPFSVLRFSQKFVDRVANPKDIIHFFRHREQKEKTGEEINFGKLITKPSEGTTLRVEDLVKQYFQTAEKNVQLSLLTERGMGEAVQEFVDKEEKDAIEELVKYQLEKTQRFLKERHIDALEDKIDEEVRRFRETRQKNTNEEDDEVREAMTRARALRSQSEESASAFSADDLMSIDLAEQMANDSDDSISAATNKGRGRGRGRRGGRGQNSASRGGSQRGRADTGLETSTRSRNSKTAVSASRNMSIIDAFKSTRQQPSRNVTTKNYSEVIEVDESDVEEDIFPTTSKTDQRWSSTSSSKIMSQSQVSKGVDFESSEDDDDDPFMNTSSLRRNRR	-0.2958	–
0.1821	–	QARS (protein, UniProt P47897 2-775, looked up) Glutamine--tRNA ligase: AALDSLSLFTSLGLSEQKARETLKNSALSAQLREAATQAQQTLGSTIDKATGILLYGLASRLRDTRRLSFLVSYIASKKIHTEPQLSAALEYVRSHPLDPIDTVDFERECGVGVIVTPEQIEEAVEAAINRHRPQLLVERYHFNMGLLMGEARAVLKWADGKMIKNEVDMQVLHLLGPKLEADLEKKFKVAKARLEETDRRTAKDVVENGETADQTLSLMEQLRGEALKFHKPGENYKTPGYVVTPHTMNLLKQHLEITGGQVRTRFPPEPNGILHIGHAKAINFNFGYAKANNGICFLRFDDTNPEKEEAKFFTAICDMVAWLGYTPYKVTYASDYFDQLYAWAVELIRRGLAYVCHQRGEELKGHNTLPSPWRDRPMEESLLLFEAMRKGKFSEGEATLRMKLVMEDGKMDPVAYRVKYTPHHRTGDKWCIYPTYDYTHCLCDSIEHITHSLCTKEFQARRSSYFWLCNALDVYCPVQWEYGRLNLHYAVVSKRKILQLVATGAVRDWDDPRLFTLTALRRRGFPPEAINNFCARVGVTVAQTTMEPHLLEACVRDVLNDTAPRAMAVLESLRVIITNFPAAKSLDIQVPNFPADETKGFHQVPFAPIVFIERTDFKEEPEPGFKRLAWGQPVGLRHTGYVIELQHVVKGPSGCVESLEVTCRRADAGEKPKAFIHWVSQPLMCEVRLYERLFQHKNPEDPTEVPGGFLSDLNLASLHVVDAALVDCSVALAKPFDKFQFERLGYFSVDPDSHQGKLVFNRTVTLKEDPGKV	0.6541	–
